Laboratory results published in paper PMC4996508.

Target: Neurospora crassa importin-α (residues 75-529) (Neurospora crassa)
Test: ITC; importin-α (50 μM) in the cell, PAC-3 NLS peptide (500 μM) titrated from the syringe; 20°C; 20 mM Tris-HCl pH 8.0, 100 mM NaCl; single binding site model

Sequence of Neurospora crassa importin-α (residues 75-529) (Neurospora crassa) (G5EB89 other isoform, or with tags, fused parts or gaps): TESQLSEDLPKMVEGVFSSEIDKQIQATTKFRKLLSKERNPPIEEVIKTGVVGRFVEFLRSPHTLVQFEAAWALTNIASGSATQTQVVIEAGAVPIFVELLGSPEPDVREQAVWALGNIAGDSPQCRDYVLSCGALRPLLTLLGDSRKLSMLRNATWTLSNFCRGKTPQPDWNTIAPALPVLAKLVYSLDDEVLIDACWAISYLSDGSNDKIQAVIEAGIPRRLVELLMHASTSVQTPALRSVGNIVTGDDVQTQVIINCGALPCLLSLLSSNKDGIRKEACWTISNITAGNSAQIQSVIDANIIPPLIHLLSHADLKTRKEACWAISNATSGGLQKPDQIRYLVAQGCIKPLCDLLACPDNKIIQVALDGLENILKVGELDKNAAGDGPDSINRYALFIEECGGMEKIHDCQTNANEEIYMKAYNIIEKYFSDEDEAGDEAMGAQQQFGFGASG
Sequence of PAC-3 NLS peptide (peptide): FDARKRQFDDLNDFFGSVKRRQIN

## PAC-3 NLS peptide
  Kd: 390 nM
  dH: -12.1 kcal/mol
  stoichiometry N: 1
